The values below come from PMC13323077, “Hydrophobic tuning with non-canonical amino acids in a copper metalloenzyme” (Nature Chemistry, 2026).

Substrate in series [1]: CC(=O)N1c2ccc(O)cc2Oc2cc(O)ccc21
In words: purified protein. As to conditions: pH 7.0, 25 °C, 20 mM Britton-Robinson buffer. The series is classed as biochemical, Streptomyces coelicolor.

Substrate in series [2]: CCn1c(=NN=c2sc3cc(S(=O)(=O)O)ccc3n2CC)sc2cc(S(=O)(=O)O)ccc21
In words: purified protein. The series is classed as biochemical, Streptomyces coelicolor. Particulars: pH 4.0, 25 °C, 20 mM Britton-Robinson buffer.

Where [3] appears, read: 500 µM CuCl2, air O2, 1 µM enzyme.
[4] abbreviates: 1 mM CuCl2, air O2, 1,000 nM enzyme.

B1: ScSLAC (Streptomyces coelicolor A3(2)) (protein)
chain: APAAKGITARTAPAGGEVRHLKMYAEKLADGQMGYGFEKGKASVPGPLIEVNEGDTLHIEFTNTMDVRASLHVHGLDYEISSDGTAMNKSDVEPGGTRTYTWRTHKPGRRDDGTWRPGSAGYWHYHDHVVGTEHGTGGIRNGLYGPVIVRRKGDVLPDATHTIVFNDMTINNRKPHTGPDFEATVGDRVEIVMITHGEYYHTFHMHGHRWADNRTGILTGPDDPSRVIDNKITGPADSFGFQIIAGEGVGAGAWMYHCHVQSHSDMGMVGLFLVKKPDGTIPGYEPHEHGGATAKSGESGEPTGGAAAHEHEH
notes: N-terminal signal peptide (residues 2-30) removed, C-terminal His6, pET28, expressed in E. coli B-95deltaAdeltafabR, Cu-loaded; homotrimer (known biology)
Take B1: in series [1] (setting [3]), the Km is 0.25(3) mM and the kcat is listed as 0.045(4) min-1. In series [2] (1 mM CuCl2, air O2, 200 nM enzyme), the Km is 0.96(5) mM.

B2: ScSLAC (Streptomyces coelicolor A3(2); M298L) (protein)
chain: APAAKGITARTAPAGGEVRHLKMYAEKLADGQMGYGFEKGKASVPGPLIEVNEGDTLHIEFTNTMDVRASLHVHGLDYEISSDGTAMNKSDVEPGGTRTYTWRTHKPGRRDDGTWRPGSAGYWHYHDHVVGTEHGTGGIRNGLYGPVIVRRKGDVLPDATHTIVFNDMTINNRKPHTGPDFEATVGDRVEIVMITHGEYYHTFHMHGHRWADNRTGILTGPDDPSRVIDNKITGPADSFGFQIIAGEGVGAGAWMYHCHVQSHSDMGLVGLFLVKKPDGTIPGYEPHEHGGATAKSGESGEPTGGAAAHEHEH
notes: as for B1
For the protein B2, in series [2] (setting [4]), the Km was 1.19(7) mM and the kcat is given as 0.32(1) s-1.

B3: ScSLAC (Streptomyces coelicolor A3(2); M296W/S292P) (protein)
chain: APAAKGITARTAPAGGEVRHLKMYAEKLADGQMGYGFEKGKASVPGPLIEVNEGDTLHIEFTNTMDVRASLHVHGLDYEISSDGTAMNKSDVEPGGTRTYTWRTHKPGRRDDGTWRPGSAGYWHYHDHVVGTEHGTGGIRNGLYGPVIVRRKGDVLPDATHTIVFNDMTINNRKPHTGPDFEATVGDRVEIVMITHGEYYHTFHMHGHRWADNRTGILTGPDDPSRVIDNKITGPADSFGFQIIAGEGVGAGAWMYHCHVQPHSDWGMVGLFLVKKPDGTIPGYEPHEHGGATAKSGESGEPTGGAAAHEHEH
notes: as for B1
B3: in series [1] (500 µM CuCl2, air O2), the Km is reported as 0.144(5) mM and the kcat is listed as 0.405(4) min-1.

B4: ScSLAC (Streptomyces coelicolor A3(2); M298F) (protein)
chain: APAAKGITARTAPAGGEVRHLKMYAEKLADGQMGYGFEKGKASVPGPLIEVNEGDTLHIEFTNTMDVRASLHVHGLDYEISSDGTAMNKSDVEPGGTRTYTWRTHKPGRRDDGTWRPGSAGYWHYHDHVVGTEHGTGGIRNGLYGPVIVRRKGDVLPDATHTIVFNDMTINNRKPHTGPDFEATVGDRVEIVMITHGEYYHTFHMHGHRWADNRTGILTGPDDPSRVIDNKITGPADSFGFQIIAGEGVGAGAWMYHCHVQSHSDMGFVGLFLVKKPDGTIPGYEPHEHGGATAKSGESGEPTGGAAAHEHEH
notes: as for B1
For B4, in series [2] (setting [4]), the Km is 0.4(1) mM and the kcat was 0.19(3) s-1.
